In the RNAGym collection of RNA variant scans (doi:10.7554/elife.90254):

B1: OR4K15 (parent)
chain: GUUAACGGUCAUAGGCCAUGGAAACUAGGAGCACCAUUUCGCUGCCAGUGAAGAAAUGAACAAAGAAAAUCUGGGCCAGGCAGGCAUCAAAAGAAAUAGUCUUGCGCUCAACCAGAAAGUCUGUAAUCAUUUUAAGGGUA

Variants of: B1
Test: self-cleavage, relative activity (ratio to wild type); higher = more cleavage; in vitro, sequencing; the parent is a self-cleaving ribozyme
In the case of GAUAACGGUCAUAGGCCAUGGAAACUAGGAGCACCAUUUCGCUGCCAGUGAAGAAAUGAACAAAGAAAAUCUGGGCCAGGCAGGCAACAAAAGAAAUAGUCUUGCGCUCAACCAGAAAGUCUGUAAUCAUUUUAAGGGUA [U2A U87A], the self-cleavage is reported as 1.32.
Work on GUUAACGGUCAUAGGCCAUGGAAACUAGGAGCACCAUUUCGCUGCCAGUGAAGAAAUGAACAAGGAAAAUCUGGGCCAGGCAGGCAUCAAAAGGAAUAGUCUUGCGCUCAACCAGAAAGUCUGUAAUCAUUUUAAGGGUA [A64G A94G] yielded a self-cleavage of 1.74.
GUUAACGGUCAUAGGCCAUGGAAACUAGGAGCACCAUUUCGCUGCCAGUGAAGAAGUGAACAAAGAAAAUCUGGGCCAGGCAGGCAUCAAAAGAAAUGGUCUUGCGCUCAACCAGAAAGUCUGUAAUCAUUUUAAGGGUA [A56G A98G] gave a self-cleavage of 0.57.
For GUUAACGGUCAUAGGCCAAGGAAACUAGGAGCACCACUUCGCUGCCAGUGAAGAAAUGAACAAAGAAAAUCUGGGCCAGGCAGGCAUCAAAAGAAAUAGUCUUGCGCUCAACCAGAAAGUCUGUAAUCAUUUUAAGGGUA [U19A U37C], the self-cleavage was 0.9.
Variant GUUAACGGUCAUAGGCCAUGGAGACUAGGAGCACCAUUUCGCUGCCAGUGAAGAAAUGAACAAAGAAAAUCUGGCCCAGGCAGGCAUCAAAAGAAAUAGUCUUGCGCUCAACCAGAAAGUCUGUAAUCAUUUUAAGGGUA [A23G G75C] has a self-cleavage of 0.16.
For GUUAACGGUCAUAGGCCAUGGAAACUAGGAGCACCAUUUCGCUGCCAGUGAAGAAAUGAACAAAGAAAAUCUGGGCCAGGCAGGCUUCAAAAGAAAUAGUCUUGCGCUCAACCAGAAAGUCUGUAAUCAUUUUAUGGGUA [A86U A135U], the self-cleavage was 2.32.
In the case of GUUAACGGUCAUAGGCCAUGGAAACUAGGAGCACCAUUUCGCUGCCAGUGAAGAAAUGAACAAAGAAAAUCUGGGCCAGGCAGGCAUCAAAAGUAAUAGUCUUGCGCUCAACCAGAAAGUCUGUAACCAUUUUAAGGGUA [A94U U127C], the self-cleavage is reported as 1.21.
GUUAACGGUCAUAGGCCAUGGAAACUAGGAGCACCAUUUCGCUGCCAGUGAAGAAAUGAACAAAGAAAAUCUGGGCCAGGCAGGCAUCAAAAGAAAUAGUCUUGCGCUCAACCAGAAAGUCAGUGAUCAUUUUAAGGGUA [U122A A125G] showed a self-cleavage of 0.55.
With GUUAACGGUCAUAGGCCAUGGAAACUAGGAGCACCAUUUCGCUGCCAGUGAAGAAAUGAACAAAGAAAAUCUGGGCUAGGCAGGCAUCAAAAGAAAUAGUCUUGCGCUCAACCAGAAAGUCUGUAAUCAUUUCAAGGGUA [C77U U133C] the self-cleavage was 2.55.
Variant GUUAACGGUCAUAGGCCAUGGAAACUAGGAGCACCAUUUCGCUGCCAGUGAAGAAAUGAAUAGAGAAAAUCUGGGCCAGGCAGGCAUCAAAAGAAAUAGUCUUGCGCUCAACCAGAAAGUCUGUAAUCAUUUUAAGGGUA [C61U A63G] has a self-cleavage of 2.17.
In the case of GUUAACGGUCACAGGCCAUGGAAACUAGGAGCACCAUUUCGCUGCCAGUGAAGAAAUGAACAAAGAAAAUCUGGGCCAGGCAGGCAUCAAAGGAAAUAGUCUUGCGCUCAACCAGAAAGUCUGUAAUCAUUUUAAGGGUA [U12C A92G], the self-cleavage is reported as 0.58.
Work on GUUAACGGUCAUAGGCCAUGGAAACUAGGAGCACCAUUUCGCUGCCAGUGAAAAAAUGAACAAAGAAAAUCUGGGCCAGGCAGGCAUCAAAAGAAAUAGUCUUGCGCUCAGCCAGAAAGUCUGUAAUCAUUUUAAGGGUA [G53A A111G] yielded a self-cleavage of 0.02.
For GUUAACGGUCAUAGGCCAUGGAAACUAGGAGCACCAUUUCGCUGCCAGUGAAGAAAUGAACAAAGAAAAUCUGGGCCAGGCAGGCAUCAAAAGAAAUAGUCUUGCGCUCAACCAGAAAGUCUGUAAUCAUUUUAGGGGUA [A135G], the self-cleavage was 1.14.
GUUAACGGUCAUAGGCCAUGGAAACUAGGAGCACCAUUUCGCUGCCAGUGAAGAAAUGAACAAAGAAAAUCUGGGCCAGGCGGGCAUCAAAAGAAAUAGUCUUGCGCUAAACCAGAAAGUCUGUAAUCAUUUUAAGGGUA [A82G C109A] gave a self-cleavage of 0.05.
GUUAACGGUCAUAGGCCAUGGAAACUAGGAGCACCAUUUCGCUGCCAGUGAAGAAAUGAACAAAGAAAAUCUGGGCCAGGCAGACAUCAAAAGAAAUAGUCUCGCGCUCAACCAGAAAGUCUGUAAUCAUUUUAAGGGUA [G84A U103C] gave a self-cleavage of 0.82.
Variant GUUAACGGUCAUAGGCCAUGGAAACUAGGAGCACUAUUUCGCUGCCAGUGAAGAAAUGAACAAAGAAAAUCUGGGCCAGGCAGGCAUCAAAAGACAUAGUCUUGCGCUCAACCAGAAAGUCUGUAAUCAUUUUAAGGGUA [C35U A95C] has a self-cleavage of 0.87.
With GUUAACGGUCAUAGGCCAUGGAAACUAGGAGCACCAUUACGCUGCCAGUGAAGAAAUGAACAAAGAAAAUCUGGGCCAGGCAGGCAUCAAAAGAAAUAGUCUUGCGCUCAACCGGAAAGUCUGUAAUCAUUUUAAGGGUA [U39A A114G] the self-cleavage was 0.77.
Work on GUUAACGGUCAUAGGCCAUGGAAACUAGGAGCACCAUUUCGCCGCCUGUGAAGAAAUGAACAAAGAAAAUCUGGGCCAGGCAGGCAUCAAAAGAAAUAGUCUUGCGCUCAACCAGAAAGUCUGUAAUCAUUUUAAGGGUA [U43C A47U] yielded a self-cleavage of 0.96.
For GUUAACGGUCAUAGGCCAUGGAAACUAGGAGCACCAUUUCGCUGCCAGAGAAGAGAUGAACAAAGAAAAUCUGGGCCAGGCAGGCAUCAAAAGAAAUAGUCUUGCGCUCAACCAGAAAGUCUGUAAUCAUUUUAAGGGUA [U49A A55G], the self-cleavage was 1.53.
GUUAACGGUCAUAGGCCAUGGAAACUAGGAGCACCAUUUCGCUGCCAGUGAAGAAAUGAACAAAGAAUAUCUGGGCCAGGCAGGCAUCAAAAGAAAUAGUCUUGCGCUCAACCAGAAAGUCUGUAAUCAUUUUAAGGGUU [A68U A140U] showed a self-cleavage of 1.65.
GUUAACGGUCAUAGGCCAUGGAAACUAGGAGCACCAUUUCGCUGCCAGUGAAGAAAUGAACAAAGAAAAUCUGGGCCAGGCAGGCAUCAAAAGAAAUAGUCUUGCGCUCAACCAGAAAGUCUGUAAUCACUUAAAGGGUA [U130C U133A] showed a self-cleavage of 2.08.
In the case of GUUAACGGUCAUAGGCCAUGGAAACUAGGAGCACCAUUUCGCUGCCAGUGAAGAAAUGAACAAAGAAAAUCCGGGCCAGGCAGGCAUCAAAAGAAAUAGUCUUGCGCUCAACCAGAAAGCCUGUAAUCAUUUUAAGGGUA [U72C U120C], the self-cleavage is reported as 0.15.
Work on GUUAACGGUCAUAGGCCAUGGAAACUAGGAGCACCAUUUCGCUGCCAGUGAAGAAAUGAACAAAGAAAAUCUGGGCCAGGCAGGCACCAAAAGAAAUAGUCUUGCGCUCGACCAGAAAGUCUGUAAUCAUUUUAAGGGUA [U87C A110G] yielded a self-cleavage of 0.1.
For GUUAACGGUCAUAGGCCAUGGGAACUAGGAGCACCAUUUCGCUGCCAGUGAAGAAAUGAACAAAGAAAAACUGGGCCAGGCAGGCAUCAAAAGAAAUAGUCUUGCGCUCAACCAGAAAGUCUGUAAUCAUUUUAAGGGUA [A22G U70A], the self-cleavage was 1.28.
GUUAACGGUCAUAGGCCAUGGAAACUAGGAGCACCAUCUCGCUGCCAGUGAAGAAAUGAACAAAGAAAAUCUGGGCCAGGCAGGCAUCAAAAGAAAUAGUCUUGCGCUCAACCUGAAAGUCUGUAAUCAUUUUAAGGGUA [U38C A114U] showed a self-cleavage of 0.15.
GCUAACGGUCAUAGGCCAUGGAAACUAUGAGCACCAUUUCGCUGCCAGUGAAGAAAUGAACAAAGAAAAUCUGGGCCAGGCAGGCAUCAAAAGAAAUAGUCUUGCGCUCAACCAGAAAGUCUGUAAUCAUUUUAAGGGUA [U2C G28U] gave a self-cleavage of 2.17.
For GUUAACGGUCAUAGGCCAUGGAAACUAGGAGCACCAUUUCGCUGCCAGUGAAGAAAUAAACAAAGAAAAUCUGGGCCAGGCAGGCAUCAAAAGAAAUAGUCUCGCGCUCAACCAGAAAGUCUGUAAUCAUUUUAAGGGUA [G58A U103C], the self-cleavage was 1.09.
GUUAACGGUCAUAGGCCAUGGAAACUUGGAGCACCAUUUCGCUGCCAGUGAAGAAAUGAACAAAGAAAAUCUGGGCCAGGCAGGCAUCAAAAGAAAUAGUCUUGCGCUCAACCAAAAAGUCUGUAAUCAUUUUAAGGGUA [A27U G115A] showed a self-cleavage of 0.07.
With GUUAGCGGUCAUAGGCCAUGGAAACUAGGAGCUCCAUUUCGCUGCCAGUGAAGAAAUGAACAAAGAAAAUCUGGGCCAGGCAGGCAUCAAAAGAAAUAGUCUUGCGCUCAACCAGAAAGUCUGUAAUCAUUUUAAGGGUA [A5G A33U] the self-cleavage was 1.01.
With GUUAACGGUCAUAGGCCAUGGAAACUAGGAGCACCAUUUCGCUGCCAGUGAAGAAAUGAACAAAGAAAAUCUGGGGCAGGCAGGCAUCAAAAGAAAUAGUCUUGCGCUCAACCAGAAAGUCCGUAAUCAUUUUAAGGGUA [C76G U122C] the self-cleavage was 0.15.
With GUUAACGGUCAUAGGCCAUGGAAACUAGGAGCACCAUUUCGCUGCCAGUGAAAAAAUGAACAAAGAAAAUCUGGGCCUGGCAGGCAUCAAAAGAAAUAGUCUUGCGCUCAACCAGAAAGUCUGUAAUCAUUUUAAGGGUA [G53A A78U] the self-cleavage was 0.52.
GUUAACGGUCAUAGGCCAUGGAAACUAGGAGCACCAUUUCGCAGCCAGUGAAGAAAUGAACAAGGAAAAUCUGGGCCAGGCAGGCAUCAAAAGAAAUAGUCUUGCGCUCAACCAGAAAGUCUGUAAUCAUUUUAAGGGUA [U43A A64G] showed a self-cleavage of 1.49.
GUUAACGGUCAUAGGCCAUGGAAACUAGGAGCACCAUUUCGCUGCCAGUGAAGAAAUGAACAAAGAAAAUCUGGGCCAGGCAGGCAUCAAAAGAAAUAGUCUUGCGCUCAACCAGAAAGUCUAUAAUCCUUUUAAGGGUA [G123A A129C] showed a self-cleavage of 0.92.
Work on GUUAACGGUCAUAGGCCAUGGAAACUAGGAGCACCAUUUCGCUGCCAGUGAAGAAAUGGACAAAGAAAAUCUGGGCCAGGCAGGCAUCAAAAGAAAUAGUCUUGCGCUGAACCAGAAAGUCUGUAAUCAUUUUAAGGGUA [A59G C109G] yielded a self-cleavage of 0.03.
Variant GUUAACGGUCAUAGGCCAUGGAAACUAGGAGCACCAUUUCGCUGCCAGUGAAGAAAUGAACAAAGAAAAACUGGGCCAGGCAGGCAUCAAAAGAAAUAGUCUUGCGCUCAACCAGAAAGUCUGUAAUCACUUUAAGGGUA [U70A U130C] has a self-cleavage of 0.61.
With GUUAACGGUCAUAAGCCGUGGAAACUAGGAGCACCAUUUCGCUGCCAGUGAAGAAAUGAACAAAGAAAAUCUGGGCCAGGCAGGCAUCAAAAGAAAUAGUCUUGCGCUCAACCAGAAAGUCUGUAAUCAUUUUAAGGGUA [G14A A18G] the self-cleavage was 1.29.
GUUAACGGUCAUAGGCCAUGGAAACUAGGAGCACCAUUUCGCUGCCAGUGAAGAAGUGAACAAAGAAAAUCUGGGCCAGGCAGGCAUCAAUAGAAAUAGUCUUGCGCUCAACCAGAAAGUCUGUAAUCAUUUUAAGGGUA [A56G A91U] showed a self-cleavage of 1.21.
GUUAACGGUCAUAGGCCAUGGAAACUAGGAGCACCAUUUCGCUGCCAGUGAAGAAAUGAACAAAGAAAAUCUGGGCCAGGCAGGCAUCAAAAGAAAUAGUCUUGCGCUCAACCAGAAAGCCUGUAAUUAUUUUAAGGGUA [U120C C128U] showed a self-cleavage of 0.84.
For GUUAACGGUCAUAGGCCAUGGAAACUAGGAGCACCAUUUCGCUGCCAGUGAAGAAAUGAACAAAGAAAAUCUGGGCCAGGCAGGCAUCAAAAGAAAUAGUCUUGCGCUCAACCAGAAAGUCUGCAAUCAUUUUAAGCGUA [U124C G137C], the self-cleavage was 0.78.
GUUAACGGUCAUAGGCCAUGGAAACGAGGAGCACCAUUUCGCUGCCAGUGAAGAAAUGAACAAAGAAAAUCUGGGCCAGGCAGGCAUCCAAAGAAAUAGUCUUGCGCUCAACCAGAAAGUCUGUAAUCAUUUUAAGGGUA [U26G A89C] showed a self-cleavage of 1.29.
Variant GUUAACGGUCAUAGGCCACGGAAACUAGGAGCACCAUUUCGCUGCCAGUGAAGAAAUGAACAAAGAAAAUCUGGGCCAGGCAGGCAUCAAAAGAAAUAGUCUUGCGCUCAACCAGAAAGUCUGUAAUCCUUUUAAGGGUA [U19C A129C] has a self-cleavage of 1.72.
